In US20160264677A1 (GANYMED PHARMACEUTICALS, published 2016):
Residue numbers refer to the chain shown, from its start. Numbers in names are those of the source. One block for each binder: values may come before it.

How the values were obtained:
human CLDN4 (claudin 4) [1] = molecular target: T1, human CLDN4 (claudin 4) (human, UniProt O14493 1-209); assay: flow cytometry, HEK293 cells stably expressing the claudin
T1 sequence: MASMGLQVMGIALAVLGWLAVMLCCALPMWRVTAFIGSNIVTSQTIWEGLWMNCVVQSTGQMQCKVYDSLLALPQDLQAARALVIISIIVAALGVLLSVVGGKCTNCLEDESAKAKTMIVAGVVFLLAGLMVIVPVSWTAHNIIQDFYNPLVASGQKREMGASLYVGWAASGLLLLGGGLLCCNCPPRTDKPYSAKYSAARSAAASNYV
Experimental: (§1) To test the specificities and affinities of CLDN6-specific chimeric monoclonal antibodies binding to HEK293 cells stably transfected with CLDN3, 4, 6 or 9, respectively, and tumor cell lines that endogenously express CLDN6 was analyzed by flow cytometry. Therefore, cells were harvested with 0.05% Trypsin/EDTA, washed with FACS buffer (PBS containing 2% FCS and 0.1% sodium azide) and resuspended in FACS buffer at a concentration of 2×10⁶ cells/ml. 100 μl of the cell suspension were incubated with the appropriate antibody at indicated concentrations for 60 min at 4° C. A chimeric cross-reactive antibody (chimAB 5F2D2) was used to detect CLDN6 and CLDN9 expression. […] The cells were washed twice and resuspended in FACS buffer. The binding was analyzed by flow cytometry using a BD FACSArray.

human CLDN3 (claudin 3) [2] = molecular target: T2, human CLDN3 (claudin 3) (human, UniProt O15551 1-220); assay: as above
T2 sequence: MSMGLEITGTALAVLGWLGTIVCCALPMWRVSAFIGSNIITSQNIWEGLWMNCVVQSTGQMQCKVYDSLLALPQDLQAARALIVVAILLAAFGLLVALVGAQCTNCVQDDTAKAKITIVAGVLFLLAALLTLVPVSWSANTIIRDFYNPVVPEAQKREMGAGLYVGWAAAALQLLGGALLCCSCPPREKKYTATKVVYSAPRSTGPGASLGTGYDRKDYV
Experimental: as §1

[3] = molecular target: T3, human CLDN6 (claudin 6), full length (human, UniProt P56747 1-220); assay: flow cytometry, saturation binding on HEK293 cells stably expressing human CLDN6, median fluorescence
T3 construct: denatured cell lysate in the Western blot; also called NP 067018.2
T3 sequence: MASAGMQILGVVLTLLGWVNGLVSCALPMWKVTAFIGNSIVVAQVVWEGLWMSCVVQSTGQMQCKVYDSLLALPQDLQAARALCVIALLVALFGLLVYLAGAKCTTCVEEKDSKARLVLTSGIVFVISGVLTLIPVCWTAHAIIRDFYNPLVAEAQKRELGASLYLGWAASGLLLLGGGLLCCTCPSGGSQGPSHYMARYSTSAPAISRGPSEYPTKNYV
Experimental: (§2) The binding of CLDN6-specific chimeric monoclonal antibodies to cells expressing the target was analyzed by flow cytometry. Therefore, cells were harvested with 0.05% Trypsin/EDTA, washed with FACS buffer (PBS containing 2% FCS and 0.1% sodium azide) and resuspended in FACS buffer at a concentration of 2×10⁶ cells/ml. 100 pl of the cell suspension were incubated with the appropriate antibody at indicated concentrations for 30 min at 4° C. […] The cells were washed twice and resuspended in FACS buffer. The binding was analyzed by flow cytometry using a BD FACSArray.

human CLDN4 (claudin 4) [4] = molecular target: T1, human CLDN4 (claudin 4); assay: flow cytometry, HEK293T cells transiently co-transfected with the claudin and a fluorescence reporter
Experimental: (§3) To test the binding of monoclonal antibodies to CLDN6 and its homologous HEK293T cells were transiently transfected with the corresponding claudin-coding plasmid and the expression was analyzed by flow cytometry. In order to differentiate between transfected and non-transfected cells, HEK293T cells were co-transfected with a fluorescence marker as a reporter. 24 h post transfection cells were harvested with 0.05% trypsin/EDTA, washed with FACS buffer (PBS containing 2% FCS and 0.1% sodium azide) and resuspended in FACS buffer at a concentration of 2×10⁶ cells/ml. 100 μl of the cell suspension were incubated with the appropriate antibody at indicated concentrations for 30 min at 4° C. […] The cells were washed twice and resuspended in FACS buffer. The binding was analyzed by flow cytometry using a BD FACSArray. The expression of the fluorescence marker was plotted on the horizontal axis against the antibody binding on the vertical axis.

human CLDN9 (claudin 9) [5] = molecular target: T4, human CLDN9 (claudin 9) (human, UniProt O95484 1-217); assay: as above
T4 sequence: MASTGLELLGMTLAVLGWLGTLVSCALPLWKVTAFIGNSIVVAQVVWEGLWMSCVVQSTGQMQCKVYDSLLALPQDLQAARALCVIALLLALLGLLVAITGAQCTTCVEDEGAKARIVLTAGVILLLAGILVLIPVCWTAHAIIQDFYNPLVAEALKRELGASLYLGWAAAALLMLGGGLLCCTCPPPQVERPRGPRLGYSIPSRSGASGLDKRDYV
Experimental: as §3

human CLDN3 (claudin 3) [6] = molecular target: T2, human CLDN3 (claudin 3); assay: as above
Experimental: as §3

human CLDN9 (claudin 9) [7] = molecular target: T4, human CLDN9 (claudin 9); assay: flow cytometry, HEK293 cells stably expressing the claudin
Experimental: as §1

human CLDN4 (claudin 4) [8] = molecular target: T1, human CLDN4 (claudin 4); assay: flow cytometry, HEK293T cells transiently co-transfected with the claudin and a fluorescence reporter; remark: listed apart in the source
human CLDN9 (claudin 9) [9] = molecular target: T4, human CLDN9 (claudin 9); assay: as above; remark: listed apart in the source
human CLDN3 (claudin 3) [10] = molecular target: T2, human CLDN3 (claudin 3); assay: as above; remark: listed apart in the source
[11] = molecular target: T3, human CLDN6 (claudin 6), full length; assay: flow cytometry on NEC8 testicular cancer cells endogenously expressing CLDN6, median fluorescence
Experimental: as §2

[12] = molecular target: T3, human CLDN6 (claudin 6), full length; assay: flow cytometry on OV90 ovarian cancer cells endogenously expressing CLDN6, median fluorescence
Experimental: as §2

[13] = molecular target: T3, human CLDN6 (claudin 6), full length; assay: flow cytometry, NEC8 testicular cancer cells endogenously expressing human CLDN6
Experimental: as §2

B1: chimeric monoclonal antibody chimAB 64A (antibody, human IgG1, kappa, V domains shown)
VH: EVQLQQSGPELVKPGASMKISCKASGYSFTGYTMNWVKQSHGKNLEWIGLINPYNGGTIYNQKFKGKATLTVDKSSSTAYMELLSLTSEDSAVYYCARDYGFVLDYWGQGTTLTVSS
VL: QIVLTQSPSIMSVSPGEKVTITCSASSSVSYMHWFQQKPGTSPKLCIYSTSNLASGVPARFSGRGSGTSYSLTISRVAAEDAATYYCQQRSNYPPWTFGGGTKLEIKR
notes: Mouse/human chimeric IgG1, kappa
binding result (human CLDN4 (claudin 4) [1]): no binding (tested: 25 µg/ml (legend))
binding result (human CLDN3 (claudin 3) [2]): no binding (tested: 25 µg/ml (legend))
EC50 (read off the curve) [3]: ~0.2 µg/mL

B5: chimeric monoclonal antibody mAb206-SUBG (antibody, human IgG1, kappa, V domains shown)
VH: B1 VH
VL: B1 VL with C46G
notes: Chimeric IgG1, kappa; also called amino acid substitution variant (C46G)
binding result (human CLDN4 (claudin 4) [8]): no binding
binding result (human CLDN9 (claudin 9) [9]): no binding
binding result (human CLDN3 (claudin 3) [10]): no binding
EC50 (read off the curve) [11]: ~0.5 µg/mL
EC50 (read off the curve) [3]: ~0.2 µg/mL
EC50 (read off the curve) [12]: ~0.5 µg/mL

B6: chimeric monoclonal antibody mAb206-LCC (antibody, human IgG1, kappa, V domains shown)
VH: B1 VH
VL: QIVLTQSPAIMSASPGEKVTITCSASSSVSYLHWFQQKPGTSPKLWVYSTSNLPSGVPARFGGSGSGTSYSLTISRMEAEDAATYYCQQRSIYPPWTFGGGTKLEIKR
notes: inferred; also called light-chain combination variant
binding result (human CLDN9 (claudin 9) [9]): no binding
binding result (human CLDN3 (claudin 3) [10]): no binding
fold stronger binding affinity compared to chimAB 64A, mAb206-SUBG and mAb206-SUBS [13]: 3 fold
EC50 (read off the curve) [11]: ~0.2 µg/mL
EC50 (read off the curve) [3]: ~0.2 µg/mL
EC50 (read off the curve) [12]: ~0.4 µg/mL

The next lines start with the values.

binding result (human CLDN4 (claudin 4) [4]): no binding (tested: 25 µg/ml (legend))
binding result (human CLDN9 (claudin 9) [5]): no binding (tested: 25 µg/ml (legend))
binding result (human CLDN3 (claudin 3) [6]): no binding (tested: 25 µg/ml (legend))
B2: murine monoclonal antibody muMAB 61D (antibody, mouse IgG2a, V domains shown)
VH: B1 VH with I59S, V72I, F102Y
VL: QIVLTQSPAIMSASPGEKVTITCSASSSVSYLHWFQQKPGTSPKLWVYSTSNLPSGVPARFGGSGSGTSYSLTISRMEAEDAATYYCQQRSIYPPWTFGGGTKLEIK
notes: the assignment is an inference; also called GT512muMAB 61D; DSM ACC3069

binding result (human CLDN4 (claudin 4) [1]): no binding (tested: 25 µg/ml (legend))
binding result (human CLDN9 (claudin 9) [7]): no binding (tested: 25 µg/ml (legend))
binding result (human CLDN3 (claudin 3) [2]): no binding (tested: 25 µg/ml (legend))
B3: chimeric monoclonal antibody chimAB 61D (antibody, human IgG1, kappa, V domains shown)
VH: B1 VH with I59S, V72I, F102Y
VL: B6 VL
notes: as for B1

binding result (human CLDN4 (claudin 4) [4]): no binding (tested: 25 µg/ml (legend))
binding result (human CLDN3 (claudin 3) [6]): no binding (tested: 25 µg/ml (legend))
B4: murine monoclonal antibody muMAB 64A (antibody, mouse IgG2a, V domains shown)
VH: B1 VH
VL: QIVLTQSPSIMSVSPGEKVTITCSASSSVSYMHWFQQKPGTSPKLCIYSTSNLASGVPARFSGRGSGTSYSLTISRVAAEDAATYYCQQRSNYPPWTFGGGTKLEIK
notes: also called GT512muMAB 64A; DSM ACC3070

binding result (human CLDN4 (claudin 4) [8]): no binding
binding result (human CLDN9 (claudin 9) [9]): no binding
binding result (human CLDN3 (claudin 3) [10]): no binding
EC50 (read off the curve) [11]: ~0.5 µg/mL
EC50 (read off the curve) [3]: ~0.2 µg/mL
EC50 (read off the curve) [12]: ~0.5 µg/mL
B7: chimeric monoclonal antibody mAb206-SUBS (antibody, human IgG1, kappa, V domains shown)
VH: B1 VH
VL: B1 VL with C46S
notes: Chimeric IgG1, kappa; also called amino acid substitution variant (C46S)
